2 substances from article PMC2364200 can be followed below.

The target of the experiment is vitronectin (UniProt P04004).
Chain of UniProt P04004 (P04004 20-478): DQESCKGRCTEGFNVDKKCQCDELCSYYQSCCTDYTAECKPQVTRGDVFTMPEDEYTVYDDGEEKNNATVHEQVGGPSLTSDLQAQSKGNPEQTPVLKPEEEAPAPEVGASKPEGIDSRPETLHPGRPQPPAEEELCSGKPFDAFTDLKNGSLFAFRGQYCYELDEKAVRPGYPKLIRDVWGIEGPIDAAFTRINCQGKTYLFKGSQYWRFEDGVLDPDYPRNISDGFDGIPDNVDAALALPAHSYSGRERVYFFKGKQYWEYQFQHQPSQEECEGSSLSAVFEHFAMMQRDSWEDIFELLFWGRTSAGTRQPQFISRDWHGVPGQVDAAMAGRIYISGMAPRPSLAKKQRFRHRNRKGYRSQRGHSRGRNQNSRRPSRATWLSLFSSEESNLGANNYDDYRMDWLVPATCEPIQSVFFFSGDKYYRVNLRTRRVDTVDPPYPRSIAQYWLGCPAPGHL

In the case of “avb3 integrin heterodimer with the b3 chimaeric mutant whose cytoplasmic domain is extended by the C-terminal 11 amino acids of b6 (on V3B3S11aa squamous cell carcinoma cells) (from UniProt P06756 31-1048; P05106 27-788; P18564 778-788) (receptor)”, the adhesion of V3B3S11aa cells on vitronectin (C1 null transfectant cells without avb3: 6.52%) worked out at 39.5%, the haptotactic migration of V3B3S11aa cells towards vitronectin (C1 cells: 2.01%) was 21.8%, the haptotactic migration of V3B3S11aa cells towards vitronectin in the presence of LM609 came out at 0% and the inhibition of adhesion of V3B3S11aa cells to vitronectin by LM609 (anti-avb3 blocking antibody) amounted to 26%.
With “avb3 integrin heterodimer, wild type b3 (on V3B3 squamous cell carcinoma cells) (from UniProt P06756 31-1048; P05106 27-788) (receptor)”, the adhesion of V3B3 cells on vitronectin (C1 null transfectant cells without avb3: 6.52%) amounted to 38.6%, the haptotactic migration of V3B3 cells towards vitronectin (C1 cells: 2.01%) worked out at 20.3%, the haptotactic migration of V3B3 cells towards vitronectin in the presence of LM609 worked out at 3.92% and the inhibition of adhesion of V3B3 cells to vitronectin by LM609 (anti-avb3 blocking antibody) is 30.6%.
